assay: yeast display, Sf9 membrane polyspecificity reagent, FACS + sequencing; frameworks hold sequencing errors
How it was run: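 Nanobodies came from a synthetic yeast display library in Saccharomyces cerevisiae BJ5465, induced with galactose for 36–48 hours and stained for 1 hour at 4 °C with 10% biotinylated, detergent-solubilized Sf9 membrane reagent. Cells were enriched on streptavidin microbeads and then FACS-sorted, with low and high (top ~1%) gates set on anti-HA fluorescence for expression and streptavidin fluorescence for reagent binding. Each polyreactivity label reflects the gate a clone came from. Genes were amplified by colony PCR, sequenced by MiSeq 2 × 250 and filtered by CDR length.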

| Sequence | polyreactivity (PSR sort gate) |
| --- | --- |
| QVQLVESVGGLVQAGGSLRLSCAASGSNFSKKTMGGSRQAHGKERELVAAITTRGSSTYYADSVKGRFTISRDNAKNTVYLQMNSLKPVDTAVYYCNAPYRVTGGRYRWYDYWGQGTQVTVSS | high polyreactivity |
| QVQLVESVGGLVQAGGSLRLSCAASGSSIPYYAMGWYRQAPGKERELVARITWRSTSTYADSVKGRFTISRDNAKNTVYLQMNSLKPEDTAVYYCAVRLLSTYIIEYEHWGQGTQVTLSS | low polyreactivity |
| QVQLVESVGGLVQAGGSLRLSCAASGSTFAYNDMGWYRQAPGKERELVPDIRSGGNTNYADSVKGRFTISRDNAKNTVYLQMNSLKPEDTAVYYCATDGYRIDVYHPDYRYDYWGQGTQVTVSS | low polyreactivity |
| QVQLVESVGGLVQAGGSLRLSCAASGSTFEDNAMGWYRQAPGKERELVAAITTGGGSTYYADSVKGRFTISRDNAKNTVYLQINSLKPEDTEVYYCNAEHGWFGLLFIATANEYDYLGQGTQVTVSS | low polyreactivity |
| QVQLVESVGGLVQAGGSLRLSCAASGSTFGINAMGWYRQAPGKERELVASITRRGGSTYYADSVKGRFTISRDNAKNTVYLQMNSLKPEDTAVYYCNKTYRYGTPLYDYWGQGTQVTVSS | high polyreactivity |
| QVQLVESVGGLVQAGGSLRLSCAASGSTFKYYAMGWYRPAPGKERELVAAITYSGGRTYYADSVKGRFTISRDNAKNTVYLQMNSLNPEDTAGYYCAARRGREDDYWGQGTQVTVSS | low polyreactivity |
| QVQLVESVGGLVQAGGSLRLSCAASGSTFPFYAMGWYRQAPGKERELVAAITSGGSTYADSVKGRFTISRDNAKNTVYLQMNSLKPEDTAVYYCAASWPRWWRFGYWGQGTQVTVSS | low polyreactivity |
| QVQLVESVGGLVQAGGSLRLSCAASGSTFTYNDLGWYRQAPGKERELVARITFSSGRTYYADSVKGRFTISRDNAKNTVYLQMNSLTPEDTAVYDCARQWYWPPGYYIGQGYEYWGQGTQVTVSS | low polyreactivity |
| QVQLVESVGGLVQAGGSLRLSCAASGSTIQGNSMGWYRQAHGKERELVAAISRSGGSTYADSVKGRFTISRDNAKNTVYLEMHSLKPEDTAVFYCAAYSGVGYLWFDYWGQGTQVTVSS | low polyreactivity |
| QVQLVESVGGLVQAGGSLRLSCAASGSTLSAYVMGWYRQAPGKERELVAAITRGGNTYYADSVKGRFTISRDNAKNTVYLQMNSLKPEDTAVYYCAARTYVSYCYYTLNYWGQGTQVTVSS | high polyreactivity |
| QVQLVESVGGLVQAGGSLRLSCAASGYNFWSNTMGWYRQAPGKERELVAAISQSTASTYYADSVKGRFTISRDNAKNTVYLQMNSLKPEDTAVYYCAAYYNFGDYEYDYWGQGTQVTVSS | low polyreactivity |
| QVQLVESVGGLVQAGGSLRLSCADSGLTFVDYAMGWYRQAPGKERELVAAITSSGGSITYYADSVKGRFTISRDNAKNTVYLQMKSLKPEDTAVYYCNADYGIYTDSFRGPDYESRGQGTQVTVSS | low polyreactivity |
| QVQLVESVGGLVQAGGSLRLSCDASGRIFVKYAMGGSRQAPGKERELVASITSGGRTNYADSVKGRFTISRDNAKNTVYLQMNSLKPEDTAVYYCAADARQSRYNYWGQGTQVTVSS | high polyreactivity |
| QVQLVESVGGLVQAGGSLRLSCSASGLIFYDYDMGWYRQAPGKERELVAAISNDASTYYAHSVKGRFTISRDNAKNTVYFQMNSLKTEDTAVYFCAAEPYVFGLSSKPFWYNYWGQGTQVTVSS | low polyreactivity |
| QVQLVESVGGLVQAGGSLRLSSASSGRIFWDYAIGCYRQAPGKERELVASISTDGSTYYADSVKGRFTISRDNAKNTVYLQMNSLKPEDTEVYFCAVRGLYRYIRWGYPSYYYWGLGTQVTVSS | low polyreactivity |
| QVQLVESVGGLVQAGGSLRLTCAASVFTFGYYAMGWYRQAPGKERELVAAITWSGGRTYYADSVKGRFTISRDNAKYTVYLQMNSLKPEDTAVYYCAVETLWQGSEYWGQGTQVTVSS | low polyreactivity |
| QVQLVESVGGLVQAGGSLSLSCAASGRMLVRNAMGWYRQAAGKERELVAVIRWSGGRTSYADSVKGRFTISRDNAKNTVYLQMNSLKPEDTAVYYCNKGGSYPTSNYKSYWVGVDYCGQGTQVTVSS | low polyreactivity |
| QVQLVESVGGLVQAGGSLSLSCAASGSIFIYNARGWYRQAPGKERELVATISSGGSTTYADSVKGRFTISRDNAKNTVYLQMNSLKPEDTAVYYCATYDPPDQYFYLGYYYWGANDYWGQGTQVTVSS | low polyreactivity |
| QVQLVESVGGLVQAGGSLSLTCAASARTLNIYAMGWNRAAPGKERELVAAISKRGGTTYYADSVKGRFTISRDNAKNTVYLQMNSLKPEDTAVYYCNAAVRGVGELDYWGQGTQVTVSS | high polyreactivity |
| QVQLVESVGGLVQAGVSLRLSCAASGITFYGYAMGWYRQAPGKERELVATSTSGGSTYYADSVKGRFTISRDNAKNTVYLQMNSLKPVDTAVYYCAASRWYRRTRYGYWGQGTQLTVSS | high polyreactivity |
| QVQLVESVGGLVQEGGSLRLISAASGSIFGSNAMGWYRQAPGKEREMFAAISKSGGSTYYADSVKGRFTISRDNAKNTVYLQMNSLKPEDTAVFYCNPRWWVVTFYGRYEGDYWGQGTQVTVSS | low polyreactivity |
| QVQLVESVGGLVQEGGSLRLRCAASGSTFNKYTMGWYRQAPGKERELVAAISLRGGSTYYADSVKGRFTISRDNAKNTVYLQMNSLKPEDTAVYYCNADATHDWLRVDTYEYWGHGTQVTVSS | low polyreactivity |

| Sequence | polyreactivity (PSR sort gate) |
| --- | --- |
| QVQLVESVGGLVQGGGSLRLSCAASGINFYRYALGWYRQAPGKERELVAAINRSGDSTYYADSVKGRFTISRDNAKNTVYLQMNSLKPEDTAVYSCAAQHSIYRNPGLDDYWGQGNQVTVSS | high polyreactivity |
| QVQLVESVGRLVQAGGSLRLSCDASGSIFYYAMGWYRQAPGKERELVAAITWRGGRTYYADSVKGRFTITRDNEKNTVYLQLNSLKPEDTAVYNCNAVAPCKYNHWGQGTQVTVSS | high polyreactivity |
| QVQLVESVGVLVQAGGSLRLSCAASGITFSSYAMGWYRQAPGKERELVAAITRTGGRTYYADSVKGRFTISRDNAKNTVYLQMNRLKPEDTAVYYCAAYYIAYYYWGQGTQVTVSS | high polyreactivity |
| QVQLVESVRGFDQAGVSLRLSCAASGSIFYHNAKGLYRQATVTERELVGAITSDGSTYYADSVKGRFTISRDNGKNTVYLLMNSLKPEDTAVFYCAAEYYGHRYDYLGQGTQVTVSS | low polyreactivity |
| QVQLVESVVGLVQAGGSLLLSCDASGGIFLRYAMGSYRQAPGKERELVARISNRGGSTYYADSVKGRFTISRDYAKNTVYLQMNSLKPEDTAVYYCAADRWSSSRGDYWGQGTQVTVSS | low polyreactivity |
| QVQLVESVVGLVQAGGSLRLSCAASGSTFYTYAMGWYRQAPGKERELVAAISYRGGSTYYADSVKGRFTISRDNAKNTVDLQMNSLKPEDTAVFYCNVDGVVVGNKRGGYDYWGQGTQVTVSS | low polyreactivity |
| QVQLVESVVGLVQAGGSLRLSCASSGSIFYYYTMGWYRHAPGKERELVAAITRGGSTNYADSVKGRFTISRDNAKNTGYLQMNSLKPEDTAVYYCAVAWYRGWYRYDYWGQGTQVTVSS | high polyreactivity |
| QVQLVESVVGLVQAGGSLRLSSAASGGTFDLYAMGWYRQAPGKERELVAAISRRGSSTYYADSVKGRFTISRDNAKNTVYLQMTSLKPEDTAVYFCNNRYYWHGINEYWGQGTQVTVSS | high polyreactivity |
| QVQLVESVVGLVQEGGSLRLSCAASGRIFAWYAMGWYRQAPGKERELVAAISDSGGSTYYADSVKGRFTISRDNAKNTVYLQMNSLKPEDTAVYYCAAQYVIRITFYATYWDDYWGQGTQVTVSS | low polyreactivity |
| QVQLVESWAGVVQAGGSLRLSCAASGSIFRNAMGWYRQAPGKERELVAGIRWSYGSTNYADSVKGRFTISRDNAKNSVYLQMNSLKPEDTAVYYCAKGAYYARRMYFWGQGTQVTVSS | low polyreactivity |
| QVQLVESWGGFVQAGGSLRLSCAASGSIFKGYVMGWYRQAPGKERELVAAISGSGGSTYYADSVKGRFTISRDNAKNTVYIQMNSLKPEDTAVYYCAARYRYWGGSGFKGFDYWGQGTQVTVSS | high polyreactivity |
| QVQLVESWGGIVQAGGSLRLSCAASGSTFHDYAMGWYRQAPGKERELVAAISRRASRTYYADSVKGRFTISRDNAKNTDFLQMNSLKPEDTAVYDCNTDQSQKTVVYDYWGQGTQVTVSS | high polyreactivity |
| QVQLVESWGGLFQAGGSLRLSCAASGRIWWNAMGWYIQSPGKERELVAAIRWSGGITRYADSVKGRFTFSGDNAKNTVYLQMKSLKPEDTAVYYCAARRNTVTGYQYYYWGQGTQVSVSS | high polyreactivity |
| QVQLVESWGGLVKAGGSLRLSCAASGRTIRGYTMGWNRQAPGKQRELVAAISQSGGRTHYADSVKGRFTISRDNAKNTVYLEMKSLKPEDTAVYYCAARGQRERSYPLYDYWGQGTQVTVSS | high polyreactivity |
| QVQLVESWGGLVLAGGRLRLSCAASGSTFPYNAMGWYRQAPGKERELVAVISQRGGSTYYADSLKGRFTISRDNAKNSVYLQMKSLKPEDTAVYYCAAEYIVTYGYDYWGQGTQVTVSS | high polyreactivity |
| QVQLVESWGGLVQAGGSLPLRCAASGRTFVQYAMGWYRQAPGKERELVAAISLSGGRTYYADSVKGRFTISRDNAKNTVYLQMNSLKPEDTAVYYFSARDSSRYYWGQGTQVTVSS | high polyreactivity |
| QVQLVESWGGLVQAGGSLRLSCAASGFNPNAMGWYRQAPGKERELVAAISSNGGSTYYADSVKGRFTISRDNAKKTVYLQMNSLKPEDTAVYYCNRDQWRHTPAEGYYWGQGTQVTVSS | low polyreactivity |
| QVQLVESWGGLVQAGGSLRLSCAASGFTFYGYAMGWYRQAPGKERELVAAISRRSSSTYYADSVKGRFTISRDNAKNTVYLQMNSLKPEDTAVYYCNTVFQLSGYAAGVDYWGQGTQVTVSS | high polyreactivity |
| QVQLVESWGGLVQAGGSLRLSCAASGGIFWNYAMGWYRQAPGKERELVATISSGGSTKYADSVKGRFTISRDNAKNTVYLQMNSLKPEDTAVYYCNKVFPNLYIYVVRGLIEMDYWGQGTQVTVSS | low polyreactivity |
| QVQLVESWGGLVQAGGSLRLSCAASGNIFYFYAMGWYRQAPGKERELVAAITSVGSTKYADSVKGRFTISRDNAKNTVYLEMNCLKPEDTAVYYCAARRWRSYYYWGQGTHVTVSS | high polyreactivity |
| QVQLVESWGGLVQAGGSLRLSCAASGNTFIEYAMGWYRQAPGKERELVAAINWNGGSTYYADSVKGRFTISRDNAKNTVYFQMNSLTPEDTAVYYCAADTFRLYGALAEYDYWGQGTQVTVSS | low polyreactivity |

— the nanobody polyreactivity screen of Harvey et al. (2022)
